For the series, the system named is Escherichia coli TOP10. The series can be described thus: shrunken log2 fold change of peptide-encoding DNA abundance (4.5 h post-induction vs induction); higher = less antimicrobial activity (less host growth inhibition). Conditions: time post-induction: 4.5 h; library: site-saturation at positions 5, 18, 19, 20.
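Further: peptides expressed intracellularly from a pBAD plasmid library in pooled LB shake-flask culture, induced with 0.3% L-arabinose, DNA abundance read by NGS, three biological replicates, DESeq2 with apeglm shrinkage.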

With RRIRHRPPRLPRPRPRPFCPPRP, the “shrunken log2 fold change” value was -0.772.

Consider RRIRGRPPRLPRPRPRPTFWPRP, for which the “shrunken log2 fold change” value came to 1.51.

For the sequence RRIRTRPPRLPRPRPRPYKRPRP, the “shrunken log2 fold change” value is -0.29. With RRIRNRPPRLPRPRPRPTMFPRP, the “shrunken log2 fold change” value is -0.247. For RRIRMRPPRLPRPRPRPWGPPRP, the “shrunken log2 fold change” value came out at 0.106. For RRIRFRPPRLPRPRPRPGVQPRP, the “shrunken log2 fold change” value worked out at 0.119. As to RRIRLRPPRLPRPRPRPHHCPRP, the “shrunken log2 fold change” value was -0.301. The result for RRIRVRPPRLPRPRPRPKWPPRP reads 0.4. As to RRIRTRPPRLPRPRPRPTLLPRP, the “shrunken log2 fold change” value came to 0.0818. Consider RRIRVRPPRLPRPRPRPFTTPRP, for which the “shrunken log2 fold change” value was -0.211. Regarding RRIRWRPPRLPRPRPRPTLAPRP, the “shrunken log2 fold change” value is 0.754. As for RRIRRRPPRLPRPRPRPKIEPRP, the “shrunken log2 fold change” value worked out at 0.0387.

On to RRIRSRPPRLPRPRPRPEALPRP, for which the “shrunken log2 fold change” value is -0.0643. The result for RRIRCRPPRLPRPRPRPAGLPRP reads 0.206. Consider RRIRTRPPRLPRPRPRPSYFPRP, for which the “shrunken log2 fold change” value was -0.85. The result for RRIRVRPPRLPRPRPRPIWRPRP reads 0.207; that for RRIRYRPPRLPRPRPRPHSRPRP, -0.103. For the sequence RRIRFRPPRLPRPRPRPHEWPRP, the “shrunken log2 fold change” value was -0.0176.

For the sequence RRIRMRPPRLPRPRPRPYNVPRP, the “shrunken log2 fold change” value was -0.3.

In the case of RRIRERPPRLPRPRPRPERWPRP, the “shrunken log2 fold change” value is -0.00254. For RRIRGRPPRLPRPRPRPCARPRP, the “shrunken log2 fold change” value was determined as 0.38. In the case of RRIRNRPPRLPRPRPRPQKMPRP, the “shrunken log2 fold change” value was -0.134. With RRIRRRPPRLPRPRPRPTQKPRP, the “shrunken log2 fold change” value is 0.788. Consider RRIRFRPPRLPRPRPRPRVEPRP, for which the “shrunken log2 fold change” value is 0.61.

On to RRIRCRPPRLPRPRPRPKPSPRP, for which the “shrunken log2 fold change” value worked out at 0.136. For RRIRHRPPRLPRPRPRPPGLPRP, the “shrunken log2 fold change” value is 0.0255. With RRIRYRPPRLPRPRPRPKHEPRP, the “shrunken log2 fold change” value was -0.0393.

RRIRGRPPRLPRPRPRPSAMPRP: the “shrunken log2 fold change” value came out at 0.989.

In the case of RRIRDRPPRLPRPRPRPRVGPRP, the “shrunken log2 fold change” value is 0.972. Take RRIRYRPPRLPRPRPRPQEHPRP: the “shrunken log2 fold change” value is -0.65. For RRIRWRPPRLPRPRPRPQDYPRP the value was -0.406; for RRIRFRPPRLPRPRPRPAIMPRP, -0.225; for RRIRARPPRLPRPRPRPLVMPRP, 0.0657.

RRIRIRPPRLPRPRPRPQHTPRP: the “shrunken log2 fold change” value is -1. RRIRLRPPRLPRPRPRPWCEPRP: the “shrunken log2 fold change” value is -0.271. RRIRARPPRLPRPRPRPHGHPRP: the “shrunken log2 fold change” value was 0.125. For RRIRPRPPRLPRPRPRPAYIPRP the value was -0.518; for RRIRMRPPRLPRPRPRPEWGPRP, 0.437; for RRIRCRPPRLPRPRPRPIFTPRP, -0.48.

For RRIRYRPPRLPRPRPRPCTYPRP, the “shrunken log2 fold change” value was -0.194. RRIRVRPPRLPRPRPRPNSPPRP: the “shrunken log2 fold change” value is -0.271.

On to RRIRWRPPRLPRPRPRPCSQPRP, for which the “shrunken log2 fold change” value came out at 0.0161. As to RRIRPRPPRLPRPRPRPAAWPRP, the “shrunken log2 fold change” value was 0.377. Regarding RRIRMRPPRLPRPRPRPDIQPRP, the “shrunken log2 fold change” value is 0.118. As to RRIRFRPPRLPRPRPRPDDKPRP, the “shrunken log2 fold change” value is -0.059. For the sequence RRIRSRPPRLPRPRPRPRWCPRP, the “shrunken log2 fold change” value stood at 0.051. For RRIRVRPPRLPRPRPRPRFIPRP the value was -0.318. For RRIRVRPPRLPRPRPRPNTEPRP, the “shrunken log2 fold change” value is -0.665. The result for RRIRKRPPRLPRPRPRPCKMPRP reads 0.093; that for RRIRHRPPRLPRPRPRPKDIPRP, -0.504; that for RRIRQRPPRLPRPRPRPFTGPRP, -0.0255.

Turning to RRIRTRPPRLPRPRPRPAPCPRP, the “shrunken log2 fold change” value worked out at 0.18. With RRIRLRPPRLPRPRPRPPHLPRP, the “shrunken log2 fold change” value was -0.0637. As to RRIRGRPPRLPRPRPRPMSMPRP, the “shrunken log2 fold change” value was found to be 0.257. The result for RRIRLRPPRLPRPRPRPQWKPRP reads 0.0162; that for RRIRPRPPRLPRPRPRPFCMPRP, -0.047; that for RRIRSRPPRLPRPRPRPWSYPRP, 0.0308. Regarding RRIRWRPPRLPRPRPRPRMWPRP, the “shrunken log2 fold change” value worked out at 0.36.

As to RRIRARPPRLPRPRPRPSAVPRP, the “shrunken log2 fold change” value was determined as 0.282. For RRIRGRPPRLPRPRPRPVCQPRP, the “shrunken log2 fold change” value came out at 0.664. The result for RRIRPRPPRLPRPRPRPIGTPRP reads -0.39.

On to RRIRWRPPRLPRPRPRPYAAPRP, for which the “shrunken log2 fold change” value was found to be 0.445. The result for RRIRQRPPRLPRPRPRPFFDPRP reads -0.0271; that for RRIRSRPPRLPRPRPRPWRQPRP, 0.11; that for RRIRSRPPRLPRPRPRPILPPRP, 0.161. In the case of RRIRWRPPRLPRPRPRPPTRPRP, the “shrunken log2 fold change” value is 0.578. On to RRIRHRPPRLPRPRPRPNLAPRP, for which the “shrunken log2 fold change” value was determined as 0.0843. Regarding RRIRDRPPRLPRPRPRPCLGPRP, the “shrunken log2 fold change” value was -0.015. Turning to RRIRPRPPRLPRPRPRPCSNPRP, the “shrunken log2 fold change” value turned out to be 0.137.

Take RRIRSRPPRLPRPRPRPRDEPRP: the “shrunken log2 fold change” value turned out to be 0.242. With RRIRARPPRLPRPRPRPPVRPRP, the “shrunken log2 fold change” value was 0.609. In the case of RRIRPRPPRLPRPRPRPLTGPRP, the “shrunken log2 fold change” value turned out to be 0.019. RRIRARPPRLPRPRPRPCLIPRP: the “shrunken log2 fold change” value is -0.191. As for RRIRMRPPRLPRPRPRPISCPRP, the “shrunken log2 fold change” value is -0.0229. RRIRERPPRLPRPRPRPWGTPRP: the “shrunken log2 fold change” value was -0.121. For RRIRKRPPRLPRPRPRPAPRPRP, the “shrunken log2 fold change” value worked out at 1.26.

Consider RRIRWRPPRLPRPRPRPIHYPRP, for which the “shrunken log2 fold change” value is -1.07.

For the sequence RRIRPRPPRLPRPRPRPECTPRP, the “shrunken log2 fold change” value was found to be 0.0119.

RRIRFRPPRLPRPRPRPSYYPRP: the “shrunken log2 fold change” value was -1.07. In the case of RRIRMRPPRLPRPRPRPGGEPRP, the “shrunken log2 fold change” value amounted to 1. The result for RRIRERPPRLPRPRPRPPCDPRP reads -0.187; that for RRIRLRPPRLPRPRPRPGAMPRP, 0.34. Regarding RRIRCRPPRLPRPRPRPAGNPRP, the “shrunken log2 fold change” value stood at 0.0404. For RRIRERPPRLPRPRPRPEANPRP the value was -0.00156. RRIRDRPPRLPRPRPRPYHKPRP: the “shrunken log2 fold change” value is -0.0174. As for RRIRIRPPRLPRPRPRPKWVPRP, the “shrunken log2 fold change” value is -0.098. The result for RRIRHRPPRLPRPRPRPTVTPRP reads -0.0378.

On to RRIRKRPPRLPRPRPRPWAPPRP, for which the “shrunken log2 fold change” value is 0.0466. For RRIRFRPPRLPRPRPRPDLMPRP the value was -0.114; for RRIRFRPPRLPRPRPRPKKCPRP, 0.107. RRIRERPPRLPRPRPRPCIIPRP: the “shrunken log2 fold change” value is -0.449.

(Values after the supplement of paper PMC9112550, “Optimization of the antimicrobial peptide Bac7 by deep mutational scanning” (BMC Biology, 2022).)
